Source: patent USRE46585 (LABORATOIRE FRANCAIS DU FRACTIONNEMENT ET DES …, dated 2017)
Numbering of substitutions follows the chain as printed. Where two headings read alike, the source gives them in different places. Each block holds one binder with its values, some of them ahead of it.

Columns and labels:
FcRn-p3 fusion protein [1] = molecular target: T1, FcRn-p3 fusion protein (human, UniProt P55899 24-297; P61769 21-119); test: ELISA pH6, soluble Fc on coated FcRn-p3
T1 construct: baculovirus expressed; coated on ELISA wells; not shown: amino terminal part of bacteriophage p3 protein and CVDE protein

FcRn-p3 fusion protein [2] = molecular target: T1, FcRn-p3 fusion protein; test: phage ELISA pH6
[3] = molecular target: T2, recombinant soluble human FcRn (human, UniProt P55899 24-297; P61769 21-119); test: SPR pH6, immobilized FcRn, steady state
T2 construct: amine-coupled to the SPR chip

FcRn-p3 fusion protein [4] = molecular target: T1, FcRn-p3 fusion protein; test: phage ELISA pH6; remark: listed apart in the source
FcRn-p3 fusion protein [5] = molecular target: T1, FcRn-p3 fusion protein; test: phage ELISA pH6 (est.)
FcRn-p3 fusion protein [6] = molecular target: T1, FcRn-p3 fusion protein; test: phage ELISA pH6 (est.); remark: listed apart in the source
FcRn-p3 fusion protein [7] = molecular target: T1, FcRn-p3 fusion protein; test: phage ELISA pH6; remark: listed apart in the source
FcRn-p3 fusion protein [8] = molecular target: T1, FcRn-p3 fusion protein; test: phage ELISA pH6; remark: listed apart in the source

EC50 (FcRn-p3 fusion protein [1]): 4.9 nM
B1: C6A_66 (soluble recombinant Fc polypeptide) (other)
chain: CPPCPAPELLGGPSVFLFPPKPKDTLMISRTPEVTCVVVDVSHEDPEVKFNWYVDGVEVHNAKTKPREQYNSTYRVVSVLPVLHQDWLNGKEYKCKVSNKALPAPIEKTISKAKGQPREPQVYTLPPSRDELTKNQVSLTCLVKGFYPSDIAVEWESNGQPENNYKTTPPVLDSDGSFFLYSKLTVDKSRWQQGNVFSCSVMHEALHYHYTQKSLSLSPGK
notes: EU numbering; E. coli periplasmic expression; E294del is a deletion; not shown: C-terminal 6xHis tag and V5 tag

Ratio/Fc-WT (FcRn-p3 fusion protein [2]): 3.7 fold
B2: B4A_03 (other)
chain: CPPCPAPELLGGPSVFLFPPKPKDTLMISRTPEVTCVVVDVSHEDPEVKFNWYVDGVEVHNAKTKPWEEQYNSTYRVVSVLPVLHQDWLNGKEYKCKVSNKALPVPIEKTISKAKGQPREPQVYTLPPSRDELTKNQVSLTCLVKGFYPSDIAVEWESNGQPENNYKTTPPVLDSDGSFFLYSKLTVDKSRWQQGNVFSCSVMHEALHSHYTQKSLSLSPGK
notes: EU numbering

Ratio/Fc-WT (FcRn-p3 fusion protein [2]): 5.6 fold
B3: B5A_16 (other)
chain: B2 chain with S14A, W67R, S73G, P82T, N90D, V105A, Q122R, S209Y, S215R
notes: EU numbering

Kd [3]: 12.4 nM
B4: T5A_78 (soluble recombinant Fc polypeptide) (other)
chain: B2 chain with V39E, W67R, P82T, V105A, Q161R, P171L, K214R
notes: EU numbering; E. coli periplasmic expression; not shown: C-terminal 6xHis tag and V5 tag

Ratio/Fc-WT (FcRn-p3 fusion protein [2]): 7.9 fold
B5: S5A_26 (other)
chain: B2 chain with W67R, P82T, Q86R, V105A, K109R, Q117E, S209Y
notes: EU numbering

EC50 (FcRn-p3 fusion protein [1]): 2.6 nM
B6: C6A_60 (soluble recombinant Fc polypeptide) (other)
chain: B2 chain with P5S, W67R, P82T, N90D, V105A, M203L, S209Y
notes: as for B4

Ratio/Fc-WT (FcRn-p3 fusion protein [2]): 5 fold
B7: B6A_31 (other)
chain: B2 chain with W67R, P82T, V105A, S150G, M203L, H208P, S209N
notes: EU numbering

Ratio/Fc-H (FcRn-p3 fusion protein [4]): 5.1 fold
Ratio/Fc-WT (FcRn-p3 fusion protein [5]): 16.3 fold
Ratio/FWT (FcRn-p3 fusion protein [6]): 16.3 fold
Ratio/Fc-H (FcRn-p3 fusion protein [7]): 5.1 fold
B8: T6A_85 (other)
chain: B2 chain with T25A, W67R, P82T, N90D, N100S, S209Y
notes: EU numbering

EC50 (FcRn-p3 fusion protein [1]): 5.5 nM
B9: T5A_74 (soluble recombinant Fc polypeptide) (other)
chain: B2 chain with W67R, P82T, N90D, N136D, A153V, S209Y
notes: as for B4

Ratio/Fc-WT (FcRn-p3 fusion protein [2]): 3.5 fold
phage-ELISA Ratio/Fc-WT (FcRn-p3 fusion protein [8]): 3.5 fold
B10: S3A_07 (other)
chain: B2 chain with V39E, W67R, P82T, V105A, A153V, E157G, S209N
notes: EU numbering

Ratio/Fc-H (FcRn-p3 fusion protein [4]): 5.7 fold
Ratio/Fc-WT (FcRn-p3 fusion protein [5]): 18.3 fold
Ratio/FWT (FcRn-p3 fusion protein [6]): 18.3 fold
Ratio/Fc-H (FcRn-p3 fusion protein [7]): 5.7 fold
B11: T6A_75 (other)
chain: B2 chain with P5T, W67R, P82T, N90D, V105A, Q137R, S201T, S209Y
notes: EU numbering

Ratio/Fc-H (FcRn-p3 fusion protein [4]): 8 fold
Ratio/Fc-WT (FcRn-p3 fusion protein [5]): 25.7 fold
Ratio/FWT (FcRn-p3 fusion protein [6]): 25.7 fold
Ratio/Fc-H (FcRn-p3 fusion protein [7]): 8 fold
B12: T5A_93 (other)
chain: B2 chain with W67R, V80A, P82T, N90D, P170A, S209Y
notes: EU numbering

Ratio/Fc-WT (FcRn-p3 fusion protein [2]): 3.7 fold
B13: B6A_20 (other)
chain: B2 chain with W67R, P82T, K95T, V105A, S209Y, K214R, K222E
notes: EU numbering

Ratio/Fc-WT (FcRn-p3 fusion protein [2]): 4.3 fold
B14: SSA_20 (other)
chain: B2 chain with P5Q, F16Y, K21R, D45E, W67R, P82T, V105A, S209N
notes: EU numbering; also called S5A_20 (probable reading)

Ratio/Fc-WT (FcRn-p3 fusion protein [2]): 4.4 fold
B15: S6A_48 (other)
chain: B2 chain with W67R, P82T, V105A, R130Q, K167E, T168N, S201T, S209Y
notes: EU numbering

Ratio/Fc-WT (FcRn-p3 fusion protein [2]): 4.2 fold
B16: S4A_42 (other)
chain: B2 chain with V39A, W67R, P82T, V105A, S209Y, G221A
notes: EU numbering

Ratio/Fc-WT (FcRn-p3 fusion protein [2]): 4.3 fold
B17: B6A_41 (other)
chain: B2 chain with W67R, P82T, V105A, S209Y, Q213R, K222E
notes: EU numbering

Ratio/Fc-WT (FcRn-p3 fusion protein [2]): 5.2 fold
B18: L4A_28 (other)
chain: B2 chain with W67R, P82T, V105A, M203L, Q213R, P220S
notes: EU numbering

Ratio/Fc-WT (FcRn-p3 fusion protein [2]): 3.6 fold
B19: S3A_06 (other)
chain: B2 chain with P5T, A6T, W67R, P82T, V105A, A153V, S209N
notes: EU numbering

Ratio/Fc-WT (FcRn-p3 fusion protein [2]): 5.7 fold
B20: S5A_43 (other)
chain: B2 chain with P5S, V59L, W67R, P82T, V105A, A153V, S209N
notes: EU numbering

Ratio/Fc-WT (FcRn-p3 fusion protein [2]): 5.1 fold
B21: S5A_07 (other)
chain: B2 chain with W67R, P82T, V105A, A153V, N196T
notes: EU numbering
